Article PMC6546054 (Genes & Development, 2019)
Residue numbers refer to the chain shown, from its start. Numbers in names are those of the source.

T1: RssB^R115A (E. coli K12, UniProt P0AEV1 1-337, R115A)
T1 sequence (looked up): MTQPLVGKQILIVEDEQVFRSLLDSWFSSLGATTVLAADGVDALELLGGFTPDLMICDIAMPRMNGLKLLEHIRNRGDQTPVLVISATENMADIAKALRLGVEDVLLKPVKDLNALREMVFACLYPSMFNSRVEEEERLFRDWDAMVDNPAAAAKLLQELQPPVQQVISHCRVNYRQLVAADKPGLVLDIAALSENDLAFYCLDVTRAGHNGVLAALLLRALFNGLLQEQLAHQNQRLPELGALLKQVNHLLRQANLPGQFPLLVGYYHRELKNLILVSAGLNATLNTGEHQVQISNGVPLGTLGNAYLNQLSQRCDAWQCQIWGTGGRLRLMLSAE

T2: RssB^(Q254A N256A) (E. coli K12, UniProt P0AEV1 1-337, Q254A | N256A)
T2 sequence (looked up): T1 sequence (looked up) with A115R, Q254A, N256A

T3: RssB (wild type) (E. coli K12, UniProt P0AEV1 1-337)
T3 sequence (looked up): T1 sequence (looked up) with A115R

T4: RssB^AAA (E. coli K12, UniProt P0AEV1 1-337, E134-E137 to EAAA)
T4 sequence (looked up): T1 sequence (looked up) with A115R, E135A, E136A, E137A

B1: His6IraD (wild type) (natural protein, E. coli K12, UniProt P39375 1-130, looked up)
chain: MMRQSLQAVLPEISGNKTSSLRKSVCSDLLTLFNSPHSALPSLLVSGMPEWQVHNPSDKHLQSWYCRQLRSALLFHEPRIAALQVNLKEAYCHTLAISLEIMLYHDDEPLTFDLVWDNGGWRSATLENVS
B2: RssB^CC (natural protein, E. coli K12, UniProt P0AEV1 1-337, looked up)
chain: T1 sequence (looked up) with S29C, A115R, E229C
B3: RssB^D104N (natural protein, E. coli K12, UniProt P0AEV1 1-337, looked up)
chain: T1 sequence (looked up) with D104N, A115R

What was measured:
[1] = biological target: RssB (wild type) (E. coli K12) (UniProt P0AEV1); test: cross-linking
RssB^R115A = biological target: T1, RssB^R115A; test: pull-down
RssB^(Q254A N256A) = biological target: T2, RssB^(Q254A N256A); test: pull-down
RssB (wild type) = biological target: T3, RssB (wild type); test: pull-down
RssB^AAA = biological target: T4, RssB^AAA; test: pull-down
cross-linking = biological target: the molecule itself; test: cross-linking
His6IraD (wild type) = biological target: B1; test: pull-down

Which stoichiometry N [1] does the source give for “RssB (wild type) (from UniProt P0AEV1 1-337) (natural protein)” here?
Its stoichiometry N is 2.

Does B1 bind (RssB^R115A)?
Result: binds

Does B1 bind (RssB^(Q254A N256A))?
Result: binds

Does B1 bind (RssB (wild type))?
Result: binds

Does B1 bind (RssB^AAA)?
Result: binds

Which “stoichiometry N” value (cross-linking) does the source give for B2 here?
Its value is 2.

For B3, which “binding relative to wild type” value (His6IraD (wild type)) is on record?
The value was 18 ± 3%.
